The MegaScale stability set (Tsuboyama et al. 2023)

B1: HHH_rd1_0493 (parent)
chain: RDEDEKEKIKEALKRGNEDKAKEIAKRANVSPEEYERLRKEAE

Variants of: B1
Assay: folding stability dG (cDNA display proteolysis); higher = more stable
Conditions: PBS, room temperature

Folding stability dG [kcal/mol]: each site, then its substitutions
E7: L 3.09; F 3; P 1.58; T 3; V 2.97; R 3.15; K 3.1
G16: V 0.445; I 0.476; Q 1.56; P 0.767; C 1.76; S 1.29
K8: R 3; Q 3.15; C 2.37; D 2.25; I 2.1; E 2.66; W 2.44; P 0.847; M 3.08
E11: A 2.82; V 2.04; D 2.96; T 2.29; R 2.54; K 2.24; S 2.58
K20: Q 3.19; F 2.98; G 2.5; N 2.27; S 2.6; A 3.16; Y 3.13; W 3.02; T 2.76
A42: W 2.2; Q 1.88; K 1.03; M 2.51; R 1.21; V 3.33; T 2.31; L 2.54; G 1.62
P32: A 3.03; E 2.85; H 2.7; G 2.37; F 2.76; K 2.65; R 2.73; V 2.74; W 2.92; D 3.02; C 2.07
A21: D 0.52; I 0.511; G 1.13; W 0.514; K 0.184
K14: T 2.07; L 2.67; M 2.79; W 1.9; I 2.67
A28: L 3.25; S 2.51; E 1.96; G 2.32; M 2.64; T 2.25
K6: L 3.25; G 2.46; T 2.61; S 2.56; D 1.85; M 3.11; Q 2.39; H 3.07
E34: G 1.06; F 0.766; D 2.42; M 1.72; K -0.215; R -0.261; V 1.81
E18: L 2.86; D 2.47; F 3.24; Y 3.21; H 2.94; S 2.47; M 2.74; N 2.29; G 2.06
K10: L 2.79; P 0.064; G 0.528; V 2.28; A 1.09; M 2.02; W 1.57; S 1.27; I 2.8
I24: S 0.921; R 1.04; A 1.47; G 0.729; W 1.34; P 0.59; C 1.77; M 2.13
I9: L 2.28; M 1.48; Y 0.577; G 0.603; T 0.61; S 0.587; N 0.856
L38: D 0.129; I 2.76; A 0.829; V 1.23; C 1.29; P -0.019; W 1.78; N 0.332; T 0.593
R15: N 3.17; P 0.627; K 2.91; W 2.81; F 2.62; S 3.1; L 3.09; G 2.71; D 2.85
R39: C 1.52; T 1.89; A 2.37; Q 2.2; E 1.77; I 2.09
N17: G 1.46; S 2.19; Q 3.2; A 2.65; P 1.03; K 2.41; E 3.38; M 2.94
K22: P 0.613; N 2.11; Q 2.86; Y 2.11; G 1.64; V 2.44; A 2.61; D 1.73
N29: Q 2.62; T 1.58; V 1.41; K 2.74; S 2.42; R 2.55; W 1.51; F 2.29; Y 1.9
K26: I 2.91; Y 2.35; S 2.75; D 2.71; R 3.1
E23: M 2.33; V 2.17; S 2.42; D 2.56; W 1.79; A 2.87; Y 1.79
A25: V 1.37; D 0.442; M 1.88; R 1.16; F 0.695; N 0.52; K 0.845
R27: K 2.93; A 3.04; S 2.68; D 2.26; C 2; E 2.71; T 2.51; H 2.61
D4: F 2.73; V 2.88; T 2.91; I 2.95; L 3.01; N 2.89; K 2.81; S 3.03
S31: K 2.07; Y 1.3; T 3.03; M 2.11; C 1.74; V 1.66; G 2.94; F 1.4; P 2.65
D19: Q 3.15; M 3.04; G 2.76; S 2.93; P 2.64; V 2.99; T 3.05; I 2.95
E41: C 1.88; A 2.55; T 1.97; W 2.38; S 2.05; M 2.58; Y 1.63; F 1.84; Q 2.77; N 1.77
L13: N 0.415; R 0.401; Q 0.615; H 0.865; Y 0.88; F 2.85
A12: F 2.87; W 3.01; K 0.896; T 1.43; R 0.882; G 0.656; S 2.15; C 1.94
R37: L 2.42; Y 2.05; G 1.77; T 2.22; M 2.49; S 2.27
V30: A 0.849; G 0.389; P 0.301; N 0.389; R 0.486; K 0.917
E36: C 2.86; R 1.67; M 2.24; T 1.7; K 1.49; L 2.24; W 1.68
E5: V 4.07; M 3.33; G 2.08; A 3.7; C 2.42; T 3.37; Q 2.87; I 4.07; N 2.71
E33: C 2.29; G 2.25; F 1.96; P 1.57; H 2.03; S 2.43; A 2.69; R 1.99
Y35: E 0.245; Q 0.44; L 2.26; W 2.58; H 0.142; V 1.59; A 0.298; F 3.53; D 0.022
D2: M 2.86; C 2.94; S 2.71; N 3; R 2.79; A 2.87; I 3.21; L 3.39; T 3.03; E 3.11
E43: C 2.61; M 3.31; W 3.31; Q 3.02; S 2.62; F 3.37; P 1.3; Y 3.29; V 2.79
E3: F 2.93; G 2.88; Q 3.06; P 2.79; C 2.57; R 2.93; D 3.11; H 3; S 2.89; V 2.76; Y 3.01
K40: D 2.63; I 3.16; H 3.01; E 2.98; T 2.8; V 3.01
R1: M 3.03; V 3.22; L 3.08; C 2.64; I 3.2; K 3.12
